# From US6801029B2, “Microwave dielectric spectroscopy method and apparatus” (Wisconsin Alumni Research Foundation, priority 2001, dated 2004)
# B1: Bovine pancreatic ribonuclease A (protein, UniProt P61823 27-150, looked up)
# Ribonuclease pancreatic: KETAAAKFERQHMDSSTSAASSSNYCNQMMKSRNLTKDRCKPVNTFVHESLADVQAVCSQKNVACKNGQTNCYQSYSTMSITDCRETGSSKYPNCAYKTTQANKHIIVACEGNPYVPVHFDASV
# notes: Bovine pancreatic ribonuclease A purchased from Sigma, used without further purification
# How the values were obtained:
# [1] = Thermal unfolding of RNase A by microwave dielectric spectroscopy (slot antenna s11 log mag, Lorentzian peak positions fitted to 2-state model); assay type: physicochemical
# Description: A coaxial-fed slot antenna 25 was manufactured from RO-4002 (Rogers Corporation, Rogers, Conn.) on a LPKF ProtoMat using BoardMaster 3.0 (LPKF Laser & Electronics AG, Germany). The coaxial feed was composed of semi-rigid PE-047SR (Pasternack Enterprises, Irvine, Calif.). The dimensions of the antenna were chosen to yield a resonant frequency of approximately 3 GHz. This frequency was selected to optimize the interaction of microwave radiation with “bound water,” assumed to undergo dispersion at lower frequencies than bulk solution. The active range of the antenna extends from approximately 500 MHz to 6.5 GHz. The antenna was attached to a 0.5 cm Suprasil fused quartz UV/VIS cuvette 21 (Hellma GmbH & Co., Germany).
# Microwave measurements were made utilizing as the analyzer 37 a Hewlett-Packard 8720D vector network analyzer (VNA) (Agilent Technologies, Palo Alto, Calif.) set to measure s11. The lowest power range −15 to +5 dBm was used for all experiments. The slot antenna 25 was attached to the VNA 37 using a standard 50 Ω coaxial cable 35. UV/VIS absorption measurements were performed using a Hewlett-Packard 8452A diode-array spectrophotometer with a water-thermostatted cell holder (Agilent Technologies, Palo Alto, Calif.), functioning as the optical spectrometer 28 with detector 32. Both instruments were controlled using LabView (National Instruments Corporation, Austin, Tex.) via a GPIB connection.
# Data analysis was performed in one of two ways: 1) Center frequency was determined by fitting spectra at each change of temperature or other environmental conditions to a number of Lorentzian peaks; or 2) Peak amplitude was determined for spectra at each change of temperature or other environmental condition. Commercial software such as Microcal Origin was used for both types of fitting. Data, either center frequency or amplitude, could be then plotted as a function of environmental condition and subjected to further analysis. For thermal unfolding experiments, peak center frequency determination yielded better results, perhaps because many peaks overlap. Peak amplitude determination was more successful for hormone binding experiments, probably because peaks were well-spaced and non-overlapping.
# (§1) Bovine pancreatic ribonuclease A (RNase A) was purchased from Sigma (St. Louis, Mo.) and used without further purification. All other reagents were purchased from Fisher Scientific (Pittsburgh, Pa.). Lyophilized protein was dissolved in a solution of 30 mM sodium acetate/acetic acid, 100 mM sodium chloride, pH 4.5, then dialyzed exhaustively before use. Protein concentrations were determined by UV-VIS spectroscopy. The extinction coefficient was taken as 0.72 mg^−1mL cm^−1 at 278 nm. Concentrations of RNase A varied from 0.2 to 1 mg/mL (14.6 to 73.0 μM). The environmental condition of the sample that was changed was temperature. RNase A was unfolded reversibly by increasing the temperature of the sample at a maximum rate of 0.4° C./min. The unfolding reaction was monitored using UV/VIS absorbance at 288 nm.
# As with buffer alone, peak positions shift with temperature, and most peaks broaden with increasing temperature.
# Spectra were fitted to eight Lorentzian peaks. […] Four peaks, identified in Table 1 below, responded in a sigmoidal fashion characteristic of cooperative unfolding; the remaining peaks increased or decreased monotonically with temperature.
# [2] = Thermal unfolding of RNase A monitored by UV/VIS absorbance at 288 nm, two-state model; assay type: physicochemical
# Procedure: as §1
# The unfolding of RNase A may be observed using UV/VIS absorbance. At low protein concentrations, the absorbance of RNase A follows Beer's Law:
# where A(λ) is the absorbance, ε(λ,T) is the extinction coefficient, c is the protein concentration, and l is the path length. For selected proteins, the extinction coefficient ε depends not only on the wavelength λ and the temperature T, but also on the protein conformation. Such a dependence of ε on conformation is called a hyperchromic shift. For RNase A, the maximal hyperchromic shift occurs at approximately 288 nm.
# Here, N refers to native protein, U refers to unfolded protein, Tm is the midpoint temperature (at which FN=FU=0.5 and ΔG=0 kcal/mol), ΔHm is the enthalpy at the midpoint temperature, α is the observed signal (in this case, UV/VIS absorbance), and αN and αU are the observed signals for native and unfolded protein, respectively. Since the unfolding of RNase A is a unimolecular reaction, thermodynamic parameters such as enthalpy, free energy, and mid-point temperature are independent of concentration. […] Analysis of unfolding of RNase A yields an average Tm of 58.2° C. and an average ΔHm of 74.9 kcal/mol.
# Other researchers have implied that the presence of microwave radiation destabilizes protein, and may enhance rates of folding and unfolding. […] The differences in Tm and ΔHm are within experimental error and are not thought to be significant.
# [3] = Lorentzian peak 1 (1.5 GHz at 30° C.)
# [4] = Lorentzian peak 4 (3.1 GHz at 30° C.)
# [5] = Lorentzian peak 5 (3.5 GHz at 30° C.)
# [6] = Lorentzian peak 7 (4.4 GHz at 30° C.)
# [7] = simultaneous UV/VIS and microwave measurements
molecule,measurement,setting,value
B1,Tm,[1]; [3],50.4 °C
same,ΔHm,[1]; [3],66.0 kcal/mol
same,Tm,[1]; [4],58.3 °C
same,ΔHm,[1]; [4],161.4 kcal/mol
same,Tm,[1]; [5],53.3 °C
same,ΔHm,[1]; [5],72.1 kcal/mol
same,Tm,[1]; [6],60.9 °C
same,ΔHm,[1]; [6],76.8 kcal/mol
same,Tm,"[1]; fit to all peaks (1, 4, 5, 7)",55.21 °C
same,ΔHm,"[1]; fit to all peaks (1, 4, 5, 7)",54.2 kcal/mol
same,Tm,[2]; UV/VIS alone,58.09 °C
same,ΔHm,[2]; UV/VIS alone,76.8 kcal/mol
same,average Tm (midpoint temperature of unfolding),"[2]; average, UV/VIS absorbance 288 nm, 30 mM sodium acetate/acetic acid, 100 mM NaCl, pH 4.5",58.2 °C
same,average ΔHm (enthalpy at midpoint temperature),"[2]; average, UV/VIS absorbance 288 nm, pH 4.5 buffer",74.9 kcal/mol
same,Tm,[2]; [7],58.91 °C
same,ΔHm,[2]; [7],65.1 kcal/mol
